In IntAct's records for PubMed 17462627:

B1: Emerin (Homo sapiens), P50402 (parent)
chain: MDNYADLSDTELTTLLRRYNIPHGPVVGSTRRLYEKKIFEYETQRRRLSPPSSSAASSYSFSDLNSTRGDADMYDLPKKEDALLYQSKGYNDDYYEESYFTTRTYGEPESAGPSRAVRQSVTSFPDADAFHHQVHDDDLLSSSEEECKDRERPMYGRDSAYQSITHYRPVSASRSSLDLSYYPTSSSTSFMSSSSSSSSWLTRRAIRPENRAPGAGLGQDRQVPLWGQLLLFLVFVIVLFFIYHFMQAEEGNPF

Legend:
SYNE1, Q8NF91-3 = variants of: B1; settings: with SYNE1, Q8NF91-3
SYNE2, Q8WXH0-3 = variants of: B1; settings: with SYNE2, Q8WXH0-3
SYNE2, Q8WXH0-3, sequence (Q8WXH0 6031-6885): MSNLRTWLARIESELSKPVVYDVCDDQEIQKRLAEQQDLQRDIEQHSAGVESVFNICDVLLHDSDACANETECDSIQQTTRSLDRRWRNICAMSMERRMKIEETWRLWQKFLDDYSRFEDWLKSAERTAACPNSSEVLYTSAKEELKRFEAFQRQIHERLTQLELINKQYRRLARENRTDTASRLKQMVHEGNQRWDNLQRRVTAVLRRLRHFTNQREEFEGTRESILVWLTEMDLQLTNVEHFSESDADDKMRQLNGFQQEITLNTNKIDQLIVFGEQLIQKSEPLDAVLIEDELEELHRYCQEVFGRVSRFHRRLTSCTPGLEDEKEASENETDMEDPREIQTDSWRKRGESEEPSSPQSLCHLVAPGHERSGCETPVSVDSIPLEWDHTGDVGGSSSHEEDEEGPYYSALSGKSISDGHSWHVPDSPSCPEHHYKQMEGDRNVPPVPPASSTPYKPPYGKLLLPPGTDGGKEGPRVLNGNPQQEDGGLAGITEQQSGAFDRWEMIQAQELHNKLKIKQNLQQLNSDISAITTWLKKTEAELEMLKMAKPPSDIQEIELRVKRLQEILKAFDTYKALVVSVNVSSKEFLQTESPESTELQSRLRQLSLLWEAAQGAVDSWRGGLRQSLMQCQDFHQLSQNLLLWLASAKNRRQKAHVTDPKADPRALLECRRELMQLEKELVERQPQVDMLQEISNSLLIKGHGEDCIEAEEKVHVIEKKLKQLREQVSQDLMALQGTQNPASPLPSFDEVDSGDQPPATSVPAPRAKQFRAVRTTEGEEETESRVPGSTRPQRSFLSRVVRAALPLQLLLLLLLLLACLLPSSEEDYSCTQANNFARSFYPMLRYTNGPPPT

SYNE1, Q8NF91-3, sequence (Q8NF91 other isoform, or with tags, fused parts or gaps): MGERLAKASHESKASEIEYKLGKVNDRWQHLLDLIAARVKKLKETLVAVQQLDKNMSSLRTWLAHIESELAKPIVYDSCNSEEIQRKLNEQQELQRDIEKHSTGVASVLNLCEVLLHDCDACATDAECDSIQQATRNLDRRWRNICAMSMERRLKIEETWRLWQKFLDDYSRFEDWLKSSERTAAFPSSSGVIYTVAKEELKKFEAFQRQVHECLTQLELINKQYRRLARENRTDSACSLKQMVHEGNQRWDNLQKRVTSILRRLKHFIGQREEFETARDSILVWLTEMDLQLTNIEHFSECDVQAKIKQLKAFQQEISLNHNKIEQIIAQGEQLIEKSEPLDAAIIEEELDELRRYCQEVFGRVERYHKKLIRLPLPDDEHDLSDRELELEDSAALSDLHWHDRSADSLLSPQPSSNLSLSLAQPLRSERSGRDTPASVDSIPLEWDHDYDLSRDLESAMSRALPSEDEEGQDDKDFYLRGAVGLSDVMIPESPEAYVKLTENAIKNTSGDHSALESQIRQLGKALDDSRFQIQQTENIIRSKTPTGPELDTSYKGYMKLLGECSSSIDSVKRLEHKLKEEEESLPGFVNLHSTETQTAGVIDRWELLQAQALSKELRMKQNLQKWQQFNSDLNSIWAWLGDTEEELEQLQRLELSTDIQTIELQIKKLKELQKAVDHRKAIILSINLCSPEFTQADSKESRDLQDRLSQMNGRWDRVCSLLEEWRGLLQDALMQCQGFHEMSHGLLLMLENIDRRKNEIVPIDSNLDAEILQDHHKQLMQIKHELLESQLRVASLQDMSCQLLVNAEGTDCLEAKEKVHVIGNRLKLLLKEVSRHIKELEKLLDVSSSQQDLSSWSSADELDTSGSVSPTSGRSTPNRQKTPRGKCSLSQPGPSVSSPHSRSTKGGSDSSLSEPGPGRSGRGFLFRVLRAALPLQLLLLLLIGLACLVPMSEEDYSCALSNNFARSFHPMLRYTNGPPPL

effect of a mutation on the interaction (SYNE1, Q8NF91-3)	effect of a mutation on the interaction (SYNE2, Q8WXH0-3)	Variant
decreasing interaction strength	increasing interaction strength	MDNYADLSDTELTTLLRRYNIPHGPVVGSTRRLYEKKIFEYETQRRRLSPPSSSAASSYSFSDLNSTRGDADMYDLPKKEDALLYQSKGYNDDYYEESYFTTRTYGEPESAGPSRAVRQSVTSFPDADAFHHQVHDDDLLSSSEEECKDRERPMYGRDSAYQSITHYRPVSASRSSLDLSYYTTSSSTSFMSSSSSSSSWLTRRAIRPENRAPGAGLGQDRQVPLWGQLLLFLVFVIVLFFIYHFMQAEEGNPF [P183T]
increasing interaction strength	increasing interaction strength	MDNYADLSDTELTTLLRRYNIPHGPVVGSTRRLYEKKIFEYETQRRRLSPPSSSAASSYSFSDLNSTRGDADMYDLPKKEDALLYQSKGYNDDYYEESYFTTRTYGEPESAGPSRAVRQSVTSFPDADAFHHQVHDDDLLSSSEEECKDRERPMYGRDSAYQSITHYRPVSASRSSLDLSYYHTSSSTSFMSSSSSSSSWLTRRAIRPENRAPGAGLGQDRQVPLWGQLLLFLVFVIVLFFIYHFMQAEEGNPF [P183H]
increasing interaction strength		MDNYADLSDTELTTLLRRYNIPHGPVVGSTRRLYEKKIFEYETQRRRLSPPSSSAASSYSFSDLNSTRGDADMYDLPKKEDALLYQSKGYNDDYYEESYFTTRTYGEPESAGPSRAVRQSVTSFPDADAFHHHVHDDDLLSSSEEECKDRERPMYGRDSAYQSITHYRPVSASRSSLDLSYYPTSSSTSFMSSSSSSSSWLTRRAIRPENRAPGAGLGQDRQVPLWGQLLLFLVFVIVLFFIYHFMQAEEGNPF [Q133H]
